B1: GpH7-A5/GpH7-B3 variant L235_13S/GpL16-k0 (antibody, human IgG1, kappa)
heavy 1: not shown
heavy 2: not shown
light: DIVMTQSPLSLPVTPGEPASISCQASESLVHSNRNTYLHWYLQKPGQSPQLLIYKVSNRFSGVPDRFSGSGSGTDFTLKISRVEAEDVGVYYCSQNTHVPPTFGQGTKVEIERTVAAPSVFIFPPSDEQLKSGTASVVCLLNNFYPREAKVQWKVDNALQSGNSQESVTEQDSKDSTYSLSSTLTLSKADYEKHKVYACEVTHQGLSSPVTKSFNRGEC
notes: heterodimerized IgG1, mutation in one H chain only; also called He Ab
B2: GpH7-A5/GpH7-B3 variant L235_14T/GpL16-k0 (antibody, human IgG1, kappa)
heavy 1: not shown
heavy 2: not shown
light: B1 light
notes: as for B1
B3: GpH7-A5/GpH7-B3 variant L235_16H/GpL16-k0 (antibody, human IgG1, kappa)
heavy 1: not shown
heavy 2: not shown
light: B1 light
notes: as for B1
B4: GpH7-A5/GpH7-B3 variant L235_18N/GpL16-k0 (antibody, human IgG1, kappa)
heavy 1: not shown
heavy 2: not shown
light: B1 light
notes: as for B1
B5: GpH7-A5/GpH7-B3 variant L235_19Q/GpL16-k0 (antibody, human IgG1, kappa)
heavy 1: not shown
heavy 2: not shown
light: B1 light
notes: as for B1
B6: GpH7-A5/GpH7-B3 variant D270_01G/GpL16-k0 (antibody, human IgG1, kappa)
heavy 1: not shown
heavy 2: not shown
light: B1 light
notes: Heterodimerized anti-glypican-3 IgG1 with the alteration in only one H chain; also called He Ab
B7: GpH7-A5/GpH7-B3 variant D270_03V/GpL16-k0 (antibody, human IgG1, kappa)
heavy 1: not shown
heavy 2: not shown
light: B1 light
notes: as for B6
B8: GpH7-A5/GpH7-B3 variant D270_06M/GpL16-k0 (antibody, human IgG1, kappa)
heavy 1: not shown
heavy 2: not shown
light: B1 light
notes: as for B6
B9: GpH7-A5/GpH7-B3 variant D270_07I/GpL16-k0 (antibody, human IgG1, kappa)
heavy 1: not shown
heavy 2: not shown
light: B1 light
notes: as for B6
B10: GpH7-A5/GpH7-B3 variant D270_08L/GpL16-k0 (antibody, human IgG1, kappa)
heavy 1: not shown
heavy 2: not shown
light: B1 light
notes: as for B6
B11: GpH7-A5/GpH7-B3 variant D270_10E/GpL16-k0 (antibody, human IgG1, kappa)
heavy 1: not shown
heavy 2: not shown
light: B1 light
notes: as for B6
B12: GpH7-A5/GpH7-B3 variant D270_11K/GpL16-k0 (antibody, human IgG1, kappa)
heavy 1: not shown
heavy 2: not shown
light: B1 light
notes: as for B6
B13: GpH7-A5/GpH7-B3 variant D270_12R/GpL16-k0 (antibody, human IgG1, kappa)
heavy 1: not shown
heavy 2: not shown
light: B1 light
notes: as for B6
B14: GpH7-A5/GpH7-B3 variant D270_13S/GpL16-k0 (antibody, human IgG1, kappa)
heavy 1: not shown
heavy 2: not shown
light: B1 light
notes: as for B6
B15: GpH7-A5/GpH7-B3 variant D270_15Y/GpL16-k0 (antibody, human IgG1, kappa)
heavy 1: not shown
heavy 2: not shown
light: B1 light
notes: as for B6

These binders were tested against T1, FcγRIIb, extracellular domain with C-terminal His tag (human, UniProt P31994 43-217) (assay: SPR (Biacore), antibody captured, FcγR analyte; vs GpH7-A5/GpH7-B3/GpL16-k0 = 100).
T1 construct: extracellular domain; made in FreeStyle293 cells; analyte in the Biacore assay; also called 2b; FcgRIIb
T1 sequence (looked up): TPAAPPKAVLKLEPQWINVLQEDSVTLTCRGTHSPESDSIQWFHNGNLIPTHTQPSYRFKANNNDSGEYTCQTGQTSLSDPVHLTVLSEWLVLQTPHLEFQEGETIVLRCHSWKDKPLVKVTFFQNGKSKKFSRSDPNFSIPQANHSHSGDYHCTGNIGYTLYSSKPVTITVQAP
With B1 the He/Con_2b was 48.2 relative (HeCon Ab = 100).
In the case of B2, the He/Con_2b is reported as 46.8 relative (HeCon Ab = 100).
B3 was tested, and the He/Con_2b was 76.9 relative (HeCon Ab = 100).
B4 was tested, and the He/Con_2b was 54.9 relative (HeCon Ab = 100).
With B5 the He/Con_2b was 42.6 relative (HeCon Ab = 100).

Each binder was assayed against T2, FcγRIIa R (FcγRIIa allotype with Arg at position 131), extracellular domain with C-terminal His tag (human, UniProt P12318 34-217) in the same assay as above.
T2 construct: extracellular domain; made in FreeStyle293 cells; analyte in the Biacore assay; also called FcγRIIa type R; 2aR
T2 sequence (looked up): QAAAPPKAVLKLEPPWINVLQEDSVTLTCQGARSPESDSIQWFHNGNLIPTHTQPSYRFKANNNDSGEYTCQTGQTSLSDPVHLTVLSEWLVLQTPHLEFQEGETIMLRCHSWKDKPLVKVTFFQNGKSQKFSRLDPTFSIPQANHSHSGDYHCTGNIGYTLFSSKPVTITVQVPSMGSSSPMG
In the case of B1, the He/Con_2aR is reported as 65.3 relative (HeCon Ab = 100).
B2 was tested, and the He/Con_2aR was 60.7 relative (HeCon Ab = 100).
B3 was tested, and the He/Con_2aR was 94.8 relative (HeCon Ab = 100).
With B4 the He/Con_2aR was 66.5 relative (HeCon Ab = 100).
With B5 the He/Con_2aR was 56.2 relative (HeCon Ab = 100).

These binders were tested against T3, FcγRIIIa extracellular domain with C-terminal His tag (human, UniProt P08637 17-208) (assay: SPR (Biacore), antibody captured, FcγR as analyte; binding activity relative to control heterodimerized antibody).
T3 construct: extracellular domain; also called FcgRIIIa; 3a; not shown: His tag attached to the C terminus
T3 sequence (P08637 17-208): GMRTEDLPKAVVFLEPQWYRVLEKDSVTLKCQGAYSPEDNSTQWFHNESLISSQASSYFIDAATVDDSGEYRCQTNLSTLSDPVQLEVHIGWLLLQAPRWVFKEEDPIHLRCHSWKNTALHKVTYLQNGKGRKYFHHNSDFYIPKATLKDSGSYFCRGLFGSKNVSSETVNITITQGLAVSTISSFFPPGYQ
Description: (§1) The heterodimerized antibodies He Abs in which one of the H chains was introduced with an alteration were assayed for their binding activities to each activating FcγR and inhibitory FcγR according to the method described in Example 4. […] The activating FcγRs in FIGS. 26, 27, 28, and 29 are FcγRIa, FcγRIIa (R), FcγRIIa (H), and FcγRIIIa, respectively.
(§2) Analysis of interaction between objective antibody and the FcγR was carried out using Biacore T100 (GE Healthcare). HBS-EP+ (GE Healthcare) was used as the running buffer, and the measurement temperature was set to 25° C. Chips produced by immobilizing the antigen peptide by the amine coupling method to a Series S Sencor Chip CM5 (GE Healthcare), or alternatively, chips produced by allowing preliminarily biotinylated antigen peptides to interact with and immobilize onto a Series S Sensor Chip SA (certified) (GE Healthcare) were used. Antibodies of interest were captured onto an antigen peptide-immobilized chip, and allowed to interact to each FcγR diluted with running buffer. To regenerate and repeatedly use the chip, the antibodies captured on the chip were washed off by reacting 10 mM glycine-HCl, pH 1.5.
B6 was tested, and the He/Con_3a was 38.5 % of GpH7-A5/GpH7-B3/GpL16-k0 (=100).
B7 was tested, and the He/Con_3a was 60.3 % of GpH7-A5/GpH7-B3/GpL16-k0 (=100).
With B8 the He/Con_3a was 66.3 % of GpH7-A5/GpH7-B3/GpL16-k0 (=100).
With B9 the He/Con_3a was 69.6 % of GpH7-A5/GpH7-B3/GpL16-k0 (=100).
For B10, the He/Con_3a was 71.8 % of GpH7-A5/GpH7-B3/GpL16-k0 (=100).
B11 was tested, and the He/Con_3a was 123 % of GpH7-A5/GpH7-B3/GpL16-k0 (=100).
In the case of B12, the He/Con_3a is reported as 41 % of GpH7-A5/GpH7-B3/GpL16-k0 (=100).
With B13 the He/Con_3a was 28.8 % of GpH7-A5/GpH7-B3/GpL16-k0 (=100).
In the case of B14, the He/Con_3a is reported as 56.7 % of GpH7-A5/GpH7-B3/GpL16-k0 (=100).
In the case of B15, the He/Con_3a is reported as 54.5 % of GpH7-A5/GpH7-B3/GpL16-k0 (=100).

What follows are binders tested against T4, FcγRIIb extracellular domain with C-terminal His tag (human, UniProt P31994 43-217) in the same assay as above.
T4 construct: extracellular domain; Soluble receptor expressed in FreeStyle293 cells and used as analyte in Biacore; also called FcgRIIb; 2b; not shown: His tag attached to the C terminus
T4 sequence (looked up): T1 sequence (looked up)
Description: as §1, §2
With B6 the He/Con_2b was 30.5 % of GpH7-A5/GpH7-B3/GpL16-k0 (=100).
In the case of B7, the He/Con_2b is reported as 39.5 % of GpH7-A5/GpH7-B3/GpL16-k0 (=100).
For B8, the He/Con_2b was 48.2 % of GpH7-A5/GpH7-B3/GpL16-k0 (=100).
In the case of B9, the He/Con_2b is reported as 41.5 % of GpH7-A5/GpH7-B3/GpL16-k0 (=100).
With B10 the He/Con_2b was 53.6 % of GpH7-A5/GpH7-B3/GpL16-k0 (=100).
For B11, the He/Con_2b was 76.5 % of GpH7-A5/GpH7-B3/GpL16-k0 (=100).
In the case of B12, the He/Con_2b is reported as 20.3 % of GpH7-A5/GpH7-B3/GpL16-k0 (=100).
For B13, the He/Con_2b was 18.3 % of GpH7-A5/GpH7-B3/GpL16-k0 (=100).
In the case of B14, the He/Con_2b is reported as 44.2 % of GpH7-A5/GpH7-B3/GpL16-k0 (=100).
B15 was tested, and the He/Con_2b was 44.9 % of GpH7-A5/GpH7-B3/GpL16-k0 (=100).

Each binder was assayed against T3, FcγRIIIa extracellular domain with … (assay: SPR (Biacore); He/Con_3a divided by He/Con_2b (FcγRIIIa over FcγRIIb)).
Description: as §1, §2
In the case of B6, the He_3a/2b is reported as 1.26 ratio.
B7 showed a He_3a/2b of 1.52 ratio.
Binder B8 has a He_3a/2b of 1.38 ratio.
B9 showed a He_3a/2b of 1.68 ratio.
Work on B10 yielded a He_3a/2b of 1.34 ratio.
In the case of B11, the He_3a/2b is reported as 1.61 ratio.
B12 was tested, and the He_3a/2b was 2.02 ratio.
Work on B13 yielded a He_3a/2b of 1.58 ratio.
With B14 the He_3a/2b was 1.28 ratio.
Binder B15 has a He_3a/2b of 1.22 ratio.

The binders below were run against T2, FcγRIIa R (FcγRIIa allotype with Arg at …) (assay: SPR (Biacore); He/Con_2aR divided by He/Con_2b, binding to FcγRIIa R against binding to FcγRIIb).
Description: as §1, §2
In the case of B1, the “He_2aR/2b (IIaR/IIb)” value is reported as 1.36 ratio.
B2 was tested, and the “He_2aR/2b (IIaR/IIb)” value was 1.3 ratio.
B3 was tested, and the “He_2aR/2b (IIaR/IIb)” value was 1.23 ratio.
For B4, the “He_2aR/2b (IIaR/IIb)” value was 1.21 ratio.
In the case of B5, the “He_2aR/2b (IIaR/IIb)” value is reported as 1.32 ratio.
